Results: patent US20220187308A1 (published 2022)

How the values were obtained:
GC-hIgA = biological target: T1, GC-hIgA (human); assay: SPR (Biacore A100), antibody from culture supernatant on a protein A chip, GC-hIgA as analyte, 25 C, 1.2 mM CaCl2, pH 7.4 (step 22-3)
T1 construct: Recombinant human IgA used as the antigen in the Biacore A100 screen of step (22-3); also called recombinant human IgA GC-hIgA; human IgA
Procedure: The culture supernatant obtained by the above method was used to analyze GC-hIgA-binding ability using Biacore A100. Antibodies in the culture supernatant were immobilized onto Sensor chip CM5 (GE Healthcare Bio-Sciences Corp.) with protein A (Invitrogen Corp.) immobilized thereon in an appropriate amount by the amine coupling method. A buffer solution containing 20 mM ACES, 150 mM NaCl, 0.05% (w/v) Tween 20, and 1.2 mM CaCl₂) (pH 7.4) were used as a running buffer. GC-hIgA was also diluted with this buffer. Assay was all carried out at 25° C.

[1] = biological target: T2, biotin-labeled recombinant human glypican 3 (human, UniProt P51654 25-563, biotin-labeled using EZ-Link NHS-PEG4-Biotin); assay: phage ELISA (Fab displayed on phage) on biotin-labeled GPC3, 1.2 mM CaCl2 against 1 mM EDTA
T2 construct: also called GPC3; biotin-labeled GPC3
T2 sequence (P51654 other isoform, or with tags, fused parts or gaps limits assumed): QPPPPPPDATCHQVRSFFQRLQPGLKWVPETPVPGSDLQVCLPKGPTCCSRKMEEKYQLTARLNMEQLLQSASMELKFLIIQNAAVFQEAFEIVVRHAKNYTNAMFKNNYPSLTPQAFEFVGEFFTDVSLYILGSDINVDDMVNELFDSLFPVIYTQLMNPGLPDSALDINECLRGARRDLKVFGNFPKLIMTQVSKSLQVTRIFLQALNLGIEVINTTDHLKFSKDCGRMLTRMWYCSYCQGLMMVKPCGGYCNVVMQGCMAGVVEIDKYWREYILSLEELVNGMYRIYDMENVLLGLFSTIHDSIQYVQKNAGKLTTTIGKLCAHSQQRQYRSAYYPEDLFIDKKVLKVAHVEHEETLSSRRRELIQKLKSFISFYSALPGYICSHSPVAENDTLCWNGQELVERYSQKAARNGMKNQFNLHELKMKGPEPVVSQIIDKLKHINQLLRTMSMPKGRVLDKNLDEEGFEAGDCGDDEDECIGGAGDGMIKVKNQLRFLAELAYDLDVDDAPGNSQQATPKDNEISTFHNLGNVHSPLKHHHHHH
Procedure: The plate was left standing at 37° C. for 30 minutes for incubation. […] The plate was incubated for 1 hour. […] The chromogenic reaction of the solution in each well was terminated by the addition of sulfuric acid. Then, the developed color was assayed on the basis of absorbance at 450 nm.

[2] = biological target: T3, biotinylated human IgA-Fc (human, UniProt P01876 123-333, biotin added at the C-terminal Avitag sequence by biotin ligase (BirA)); assay: phage ELISA (Fab displayed on phage) on biotin-labeled IgA-Fc, 1.2 mM CaCl2 against 1 mM EDTA (step 22-4)
T3 construct: also called biotin-labeled hIgA-Fc
T3 sequence (P01876 other isoform, or with tags, fused parts or gaps limits assumed): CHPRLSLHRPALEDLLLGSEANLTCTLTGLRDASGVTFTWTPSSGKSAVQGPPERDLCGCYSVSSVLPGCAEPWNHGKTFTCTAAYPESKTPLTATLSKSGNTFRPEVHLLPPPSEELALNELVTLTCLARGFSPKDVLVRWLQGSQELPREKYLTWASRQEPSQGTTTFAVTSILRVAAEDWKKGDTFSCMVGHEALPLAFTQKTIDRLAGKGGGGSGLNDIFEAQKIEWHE
Procedure: Each well of the plate was washed with PBST to remove unbound antigens. […] The plate was left standing at 37° C. for 30 minutes for incubation. […] The plate was incubated for 1 hour. […] The chromogenic reaction of the solution in each well was terminated by the addition of sulfuric acid. Then, the developed color was assayed on the basis of absorbance at 450 nm.

[3] = biological target: T3, biotinylated human IgA-Fc; assay: phage ELISA (Fab displayed on phage) on biotin-labeled IgA-Fc, 1.2 mM CaCl2 against 1 mM EDTA (step 22-6)

T1 sequence (light, as listed by the source): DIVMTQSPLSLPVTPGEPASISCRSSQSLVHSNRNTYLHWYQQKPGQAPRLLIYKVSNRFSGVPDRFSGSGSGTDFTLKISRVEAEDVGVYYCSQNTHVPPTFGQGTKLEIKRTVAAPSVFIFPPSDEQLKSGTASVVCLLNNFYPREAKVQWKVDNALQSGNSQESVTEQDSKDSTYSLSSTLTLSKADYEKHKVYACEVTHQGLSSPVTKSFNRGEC

B1: GA1-IgG1 (antibody, V domains shown)
VH: EVQLVQSGAEVKKPGSSVKVSCKASGGTFSSYAISWVRQAPGQGLEWMGGIIPIFGTANYAQKFQGRVTITADESTSTAYMELSSLRSEDTAVYYCARVAPGNWGSPYFDYWGQGTLVTVSS
VL: DIQMTQSPSSLSASVGDRVTITCRASQSIEDDLAWYQQKPGKAPKLLIYEASSLQSGVPSRFSGSGSGTDFTLTISSLQPEDFATYYCQQRDSSPLTFGQGTKVEIKR
notes: From the Ca library; obtained in step (22-3)
- binding result (GC-hIgA): binds

B2: CSCM-01_023 (antibody, human IgG1, kappa, V domains shown)
VH: QVQLVQSGAEVKKPGASVKVSCKASGYTFTSYGISWVRQAPGQGLEWMGWISAYNGNTNYAQKLQGRVTMTTDTSTSTAYMELRSLRSDDTAVYYCARDSPLLWFGEPFFDYWGQGTLVTVSS
VL: DIQMTQSPSSLSASVGDRVTITCRASQSIEDDLAWYQQKPGKAPKLLIYHASTLQSGVPSRFSGSGSGTDFTLTISSLQPEDFATYYCQQSDSYPLTFGQGTKVEIKR
notes: Purified IgG in the ELISA of step (24-5)
- binding result [1]: binds

B3: GA2-IgG1 (antibody, V domains shown)
VH: QVQLVQSGAEVKKPGSSVKVSCKASGGTFSSYAISWVRQAPGQGLEWMGGIIPIFGTANYAQKFQGRVTITADESTSTAYMELSSLRSEDTAVYYCARPRWETAISSDAFDIWGQGTMVTVSS
VL: DIQMTQSPSSLSASVGDRVTITCRASQSISDDLNWYQQKPGKAPKLLIYEASNLQSGVPSRFSGSGSGTDFTLTISSLQPEDFATYYCQQHSSSPLTFGQGTKVEIKR
notes: From the Ca library; obtained in step (22-4)
- binding result [2]: binds

B4: GA3-IgG1 (antibody, V domains shown)
VH: QVQLVQSGAEVKKPGSSVKVSCKASGGTFSSYAISWVRQAPGQGLEWMGGIIPIFGTANYAQKFQGRVTITADESTSTAYMELSSLRSEDTAVYYCARGNGDYLEYFQHWGQGTLVTVSS
VL: DIQMTQSPSSLSASVGDRVTITCRASQSISDDLAWYQQKPGKAPKLLIYEASNLQSGVPSRFSGSGSGTDFTLTISSLQPEDFATYYCQQRDSSPLTFGQGTKVEIKR
notes: From the Ca library; obtained in step (22-6)
- binding result [3]: binds
